Source: article PMC3448794 (Biochemistry, 2012)

Tests used:
[1] = biological target: T1, alpha-chain of cleaved human L-asparaginase (hASNase3) (human, UniProt Q7L266 1-167); experiment: crystal structure
T1 sequence (looked up): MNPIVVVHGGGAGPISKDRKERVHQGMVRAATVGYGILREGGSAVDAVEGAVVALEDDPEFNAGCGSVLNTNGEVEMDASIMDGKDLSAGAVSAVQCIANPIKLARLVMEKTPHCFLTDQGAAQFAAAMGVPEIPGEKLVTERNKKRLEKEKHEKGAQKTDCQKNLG

[2] = biological target: T2, human L-asparaginase (hASNase3), cleaved state (alpha- and beta-chains) (human, UniProt Q7L266 1-167; Q7L266 168-308); experiment: crystal structure
T2 sequence (looked up) 1: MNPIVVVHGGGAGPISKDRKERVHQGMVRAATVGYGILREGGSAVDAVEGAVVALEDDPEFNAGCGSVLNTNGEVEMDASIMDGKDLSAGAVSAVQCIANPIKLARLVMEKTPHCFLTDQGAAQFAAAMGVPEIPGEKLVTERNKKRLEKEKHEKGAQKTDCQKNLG
T2 sequence (looked up) 2: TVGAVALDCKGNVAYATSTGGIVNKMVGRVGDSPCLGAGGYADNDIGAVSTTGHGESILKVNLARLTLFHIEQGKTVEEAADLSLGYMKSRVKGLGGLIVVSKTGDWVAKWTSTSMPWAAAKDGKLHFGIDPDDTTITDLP

Row | Binder | binding result [1] | binding result [2]
1 | beta-chain of cleaved human L-asparaginase (hASNase3) (domain or fragment, UniProt Q7L266 168-308, looked up) TVGAVALDCKGNVAYATSTGGIVNKMVGRVGDSPCLGAGGYADNDIGAVSTTGHGESILKVNLARLTLFHIEQGKTVEEAADLSLGYMKSRVKGLGGLIVVSKTGDWVAKWTSTSMPWAAAKDGKLHFGIDPDDTTITDLP | binds | 
2 | human L-asparaginase (hASNase3), uncleaved state (enzyme, UniProt Q7L266 1-308, looked up) MNPIVVVHGGGAGPISKDRKERVHQGMVRAATVGYGILREGGSAVDAVEGAVVALEDDPEFNAGCGSVLNTNGEVEMDASIMDGKDLSAGAVSAVQCIANPIKLARLVMEKTPHCFLTDQGAAQFAAAMGVPEIPGEKLVTERNKKRLEKEKHEKGAQKTDCQKNLGTVGAVALDCKGNVAYATSTGGIVNKMVGRVGDSPCLGAGGYADNDIGAVSTTGHGESILKVNLARLTLFHIEQGKTVEEAADLSLGYMKSRVKGLGGLIVVSKTGDWVAKWTSTSMPWAAAKDGKLHFGIDPDDTTITDLP |  | binds
